The values that follow come from patent US20080292615.

The target of one data set is T1, Plakoglobin, P14923.
T1 chain: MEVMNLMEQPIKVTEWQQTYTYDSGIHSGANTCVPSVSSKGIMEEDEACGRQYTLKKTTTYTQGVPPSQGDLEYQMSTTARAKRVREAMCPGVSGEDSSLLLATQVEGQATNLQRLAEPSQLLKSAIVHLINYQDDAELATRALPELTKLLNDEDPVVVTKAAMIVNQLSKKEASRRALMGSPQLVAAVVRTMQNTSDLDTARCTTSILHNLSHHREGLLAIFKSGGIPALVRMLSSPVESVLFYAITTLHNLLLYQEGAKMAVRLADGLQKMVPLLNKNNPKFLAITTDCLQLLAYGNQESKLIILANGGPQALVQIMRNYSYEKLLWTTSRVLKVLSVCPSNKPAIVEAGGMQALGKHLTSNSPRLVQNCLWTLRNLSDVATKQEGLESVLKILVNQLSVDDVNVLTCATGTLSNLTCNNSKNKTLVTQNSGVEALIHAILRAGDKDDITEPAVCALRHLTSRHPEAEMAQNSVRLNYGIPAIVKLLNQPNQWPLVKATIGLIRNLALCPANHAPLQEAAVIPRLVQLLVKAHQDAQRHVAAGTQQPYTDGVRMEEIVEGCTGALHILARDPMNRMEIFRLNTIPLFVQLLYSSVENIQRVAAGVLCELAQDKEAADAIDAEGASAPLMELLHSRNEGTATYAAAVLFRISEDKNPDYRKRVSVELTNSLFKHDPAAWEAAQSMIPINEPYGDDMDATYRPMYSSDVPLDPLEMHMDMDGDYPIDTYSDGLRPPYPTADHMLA

The target of another data set is T2, Desmocollin 1, Q08554.
T2 chain: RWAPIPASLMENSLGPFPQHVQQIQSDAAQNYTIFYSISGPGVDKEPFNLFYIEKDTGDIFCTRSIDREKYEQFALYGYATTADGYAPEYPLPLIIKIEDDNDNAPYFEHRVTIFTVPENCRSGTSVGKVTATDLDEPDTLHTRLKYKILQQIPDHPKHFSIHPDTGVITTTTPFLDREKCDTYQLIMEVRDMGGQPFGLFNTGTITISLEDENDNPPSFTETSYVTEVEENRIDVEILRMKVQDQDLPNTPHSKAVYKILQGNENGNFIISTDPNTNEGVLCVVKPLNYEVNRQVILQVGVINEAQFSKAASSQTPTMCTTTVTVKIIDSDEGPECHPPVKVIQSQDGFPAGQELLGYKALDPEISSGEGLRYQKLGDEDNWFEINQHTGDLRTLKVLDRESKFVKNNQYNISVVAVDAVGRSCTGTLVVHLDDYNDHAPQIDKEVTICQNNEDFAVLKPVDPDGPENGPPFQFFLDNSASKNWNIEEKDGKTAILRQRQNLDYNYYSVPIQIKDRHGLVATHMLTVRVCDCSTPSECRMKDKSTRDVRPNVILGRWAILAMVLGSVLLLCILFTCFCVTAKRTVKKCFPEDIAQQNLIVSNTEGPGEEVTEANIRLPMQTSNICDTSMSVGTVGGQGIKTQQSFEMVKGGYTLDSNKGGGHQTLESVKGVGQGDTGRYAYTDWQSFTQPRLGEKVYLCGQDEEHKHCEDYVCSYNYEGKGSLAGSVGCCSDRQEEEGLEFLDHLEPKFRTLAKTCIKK

For another data set, the target named is T3, Corneodesmosin, Q15517.
T3 chain: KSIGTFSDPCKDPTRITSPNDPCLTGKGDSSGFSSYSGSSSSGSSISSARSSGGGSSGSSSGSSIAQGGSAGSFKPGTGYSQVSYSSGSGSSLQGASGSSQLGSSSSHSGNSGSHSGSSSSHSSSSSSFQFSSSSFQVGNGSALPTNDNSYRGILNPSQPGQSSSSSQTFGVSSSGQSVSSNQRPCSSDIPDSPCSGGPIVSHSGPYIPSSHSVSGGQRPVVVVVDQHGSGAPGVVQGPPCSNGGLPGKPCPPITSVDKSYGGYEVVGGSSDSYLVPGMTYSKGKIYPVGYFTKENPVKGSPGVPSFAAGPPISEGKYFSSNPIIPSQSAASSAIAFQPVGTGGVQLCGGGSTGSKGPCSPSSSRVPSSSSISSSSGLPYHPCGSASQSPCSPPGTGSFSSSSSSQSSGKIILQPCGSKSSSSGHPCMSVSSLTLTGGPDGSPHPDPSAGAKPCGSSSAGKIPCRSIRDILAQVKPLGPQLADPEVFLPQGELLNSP

In a further data set the target is T4, Desmoglein, Q02413.
T4 chain: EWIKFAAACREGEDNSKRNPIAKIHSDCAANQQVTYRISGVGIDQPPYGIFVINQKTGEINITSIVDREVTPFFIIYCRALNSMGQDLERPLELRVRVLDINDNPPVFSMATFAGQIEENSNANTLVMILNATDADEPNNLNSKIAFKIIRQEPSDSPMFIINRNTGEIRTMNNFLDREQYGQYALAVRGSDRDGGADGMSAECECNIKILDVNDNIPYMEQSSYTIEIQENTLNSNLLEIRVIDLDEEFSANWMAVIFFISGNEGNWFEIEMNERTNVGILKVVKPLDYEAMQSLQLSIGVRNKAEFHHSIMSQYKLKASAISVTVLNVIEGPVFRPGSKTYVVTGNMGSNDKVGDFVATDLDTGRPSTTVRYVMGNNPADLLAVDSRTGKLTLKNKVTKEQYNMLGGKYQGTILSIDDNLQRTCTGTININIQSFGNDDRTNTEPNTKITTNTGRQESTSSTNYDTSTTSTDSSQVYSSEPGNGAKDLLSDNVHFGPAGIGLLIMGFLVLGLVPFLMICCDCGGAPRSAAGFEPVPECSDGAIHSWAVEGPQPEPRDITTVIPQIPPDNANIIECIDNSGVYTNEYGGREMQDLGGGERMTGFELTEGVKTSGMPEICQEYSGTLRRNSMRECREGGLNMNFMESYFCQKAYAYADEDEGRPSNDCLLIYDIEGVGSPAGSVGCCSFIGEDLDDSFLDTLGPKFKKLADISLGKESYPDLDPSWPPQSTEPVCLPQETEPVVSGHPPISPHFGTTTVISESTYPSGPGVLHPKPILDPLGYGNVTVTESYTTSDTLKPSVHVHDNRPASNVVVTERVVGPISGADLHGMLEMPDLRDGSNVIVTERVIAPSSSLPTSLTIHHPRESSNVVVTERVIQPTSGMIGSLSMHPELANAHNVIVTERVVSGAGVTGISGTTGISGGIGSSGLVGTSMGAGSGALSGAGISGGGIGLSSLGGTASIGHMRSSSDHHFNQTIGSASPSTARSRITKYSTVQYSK

Sequence of Desmoplakin, P15924 (P15924 whole entry): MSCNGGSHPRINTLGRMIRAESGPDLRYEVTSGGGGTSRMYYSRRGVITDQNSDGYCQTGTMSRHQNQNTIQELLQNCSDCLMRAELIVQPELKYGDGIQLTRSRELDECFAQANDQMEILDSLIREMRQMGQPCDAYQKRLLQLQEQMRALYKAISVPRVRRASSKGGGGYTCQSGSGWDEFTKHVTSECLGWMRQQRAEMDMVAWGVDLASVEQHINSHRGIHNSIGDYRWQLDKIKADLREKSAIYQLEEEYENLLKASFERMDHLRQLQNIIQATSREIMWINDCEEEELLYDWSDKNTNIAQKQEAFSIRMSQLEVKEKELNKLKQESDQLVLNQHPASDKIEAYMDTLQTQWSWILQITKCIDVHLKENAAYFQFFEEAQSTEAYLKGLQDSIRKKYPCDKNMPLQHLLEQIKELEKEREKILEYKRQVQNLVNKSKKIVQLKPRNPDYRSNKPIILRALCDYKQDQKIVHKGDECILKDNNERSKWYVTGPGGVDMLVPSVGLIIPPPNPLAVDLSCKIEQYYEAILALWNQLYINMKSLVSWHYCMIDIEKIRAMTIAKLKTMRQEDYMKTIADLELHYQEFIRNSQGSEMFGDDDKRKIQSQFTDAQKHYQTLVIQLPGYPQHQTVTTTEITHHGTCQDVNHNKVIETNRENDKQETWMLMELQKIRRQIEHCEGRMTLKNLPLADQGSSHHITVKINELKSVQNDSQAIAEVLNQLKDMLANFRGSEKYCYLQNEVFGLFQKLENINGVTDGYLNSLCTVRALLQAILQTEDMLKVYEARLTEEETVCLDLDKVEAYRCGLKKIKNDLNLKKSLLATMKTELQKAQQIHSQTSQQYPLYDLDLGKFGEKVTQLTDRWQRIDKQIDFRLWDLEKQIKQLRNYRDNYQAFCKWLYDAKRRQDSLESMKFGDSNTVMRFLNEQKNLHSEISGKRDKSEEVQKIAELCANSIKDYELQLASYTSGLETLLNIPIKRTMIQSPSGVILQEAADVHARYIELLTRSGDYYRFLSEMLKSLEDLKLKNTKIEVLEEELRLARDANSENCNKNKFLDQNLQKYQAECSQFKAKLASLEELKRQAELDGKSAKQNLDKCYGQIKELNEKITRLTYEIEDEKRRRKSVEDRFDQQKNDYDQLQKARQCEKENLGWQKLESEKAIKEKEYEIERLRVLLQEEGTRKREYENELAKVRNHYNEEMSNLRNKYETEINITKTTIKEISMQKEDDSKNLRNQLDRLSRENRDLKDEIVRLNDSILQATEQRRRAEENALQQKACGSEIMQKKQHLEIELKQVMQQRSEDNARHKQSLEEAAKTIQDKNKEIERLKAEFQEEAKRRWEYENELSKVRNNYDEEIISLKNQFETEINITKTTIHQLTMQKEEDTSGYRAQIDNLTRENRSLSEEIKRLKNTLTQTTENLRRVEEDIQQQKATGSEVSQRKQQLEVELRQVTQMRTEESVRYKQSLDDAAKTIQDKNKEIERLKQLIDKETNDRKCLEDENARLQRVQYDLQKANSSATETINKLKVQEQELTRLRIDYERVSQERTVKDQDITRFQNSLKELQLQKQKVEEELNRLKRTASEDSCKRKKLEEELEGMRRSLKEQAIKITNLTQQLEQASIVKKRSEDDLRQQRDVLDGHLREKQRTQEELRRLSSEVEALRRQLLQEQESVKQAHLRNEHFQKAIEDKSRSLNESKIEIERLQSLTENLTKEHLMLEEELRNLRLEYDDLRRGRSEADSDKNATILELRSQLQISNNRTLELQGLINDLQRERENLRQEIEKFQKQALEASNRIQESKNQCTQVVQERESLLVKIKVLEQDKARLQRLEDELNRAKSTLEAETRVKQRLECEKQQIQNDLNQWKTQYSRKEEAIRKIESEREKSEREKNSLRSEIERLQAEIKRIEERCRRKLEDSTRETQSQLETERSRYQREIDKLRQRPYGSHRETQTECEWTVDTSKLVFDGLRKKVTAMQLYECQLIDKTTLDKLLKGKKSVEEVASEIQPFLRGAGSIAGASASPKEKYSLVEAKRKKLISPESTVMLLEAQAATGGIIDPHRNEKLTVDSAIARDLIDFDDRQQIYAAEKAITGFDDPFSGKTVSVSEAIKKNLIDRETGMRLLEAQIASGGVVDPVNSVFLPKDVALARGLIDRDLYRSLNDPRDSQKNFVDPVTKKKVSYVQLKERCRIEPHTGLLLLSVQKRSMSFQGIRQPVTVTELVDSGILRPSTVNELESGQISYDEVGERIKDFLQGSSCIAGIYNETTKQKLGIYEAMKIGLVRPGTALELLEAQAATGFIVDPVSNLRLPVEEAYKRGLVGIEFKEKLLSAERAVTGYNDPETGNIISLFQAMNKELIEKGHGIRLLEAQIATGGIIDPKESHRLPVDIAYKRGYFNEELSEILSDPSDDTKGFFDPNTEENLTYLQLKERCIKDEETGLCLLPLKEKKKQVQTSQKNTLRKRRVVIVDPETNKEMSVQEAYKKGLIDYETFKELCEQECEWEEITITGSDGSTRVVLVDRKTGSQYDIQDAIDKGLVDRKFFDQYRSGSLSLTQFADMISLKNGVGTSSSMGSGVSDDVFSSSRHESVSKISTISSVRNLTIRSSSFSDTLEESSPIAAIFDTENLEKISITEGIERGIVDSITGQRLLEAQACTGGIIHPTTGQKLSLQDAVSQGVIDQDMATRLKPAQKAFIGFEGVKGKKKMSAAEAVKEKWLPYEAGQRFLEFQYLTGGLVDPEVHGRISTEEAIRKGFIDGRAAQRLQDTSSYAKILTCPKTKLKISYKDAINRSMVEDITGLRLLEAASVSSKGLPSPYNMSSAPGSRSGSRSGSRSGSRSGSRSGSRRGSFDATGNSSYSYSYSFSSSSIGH
Sequence of Envoplakin, Q92817 (Q92817 whole entry): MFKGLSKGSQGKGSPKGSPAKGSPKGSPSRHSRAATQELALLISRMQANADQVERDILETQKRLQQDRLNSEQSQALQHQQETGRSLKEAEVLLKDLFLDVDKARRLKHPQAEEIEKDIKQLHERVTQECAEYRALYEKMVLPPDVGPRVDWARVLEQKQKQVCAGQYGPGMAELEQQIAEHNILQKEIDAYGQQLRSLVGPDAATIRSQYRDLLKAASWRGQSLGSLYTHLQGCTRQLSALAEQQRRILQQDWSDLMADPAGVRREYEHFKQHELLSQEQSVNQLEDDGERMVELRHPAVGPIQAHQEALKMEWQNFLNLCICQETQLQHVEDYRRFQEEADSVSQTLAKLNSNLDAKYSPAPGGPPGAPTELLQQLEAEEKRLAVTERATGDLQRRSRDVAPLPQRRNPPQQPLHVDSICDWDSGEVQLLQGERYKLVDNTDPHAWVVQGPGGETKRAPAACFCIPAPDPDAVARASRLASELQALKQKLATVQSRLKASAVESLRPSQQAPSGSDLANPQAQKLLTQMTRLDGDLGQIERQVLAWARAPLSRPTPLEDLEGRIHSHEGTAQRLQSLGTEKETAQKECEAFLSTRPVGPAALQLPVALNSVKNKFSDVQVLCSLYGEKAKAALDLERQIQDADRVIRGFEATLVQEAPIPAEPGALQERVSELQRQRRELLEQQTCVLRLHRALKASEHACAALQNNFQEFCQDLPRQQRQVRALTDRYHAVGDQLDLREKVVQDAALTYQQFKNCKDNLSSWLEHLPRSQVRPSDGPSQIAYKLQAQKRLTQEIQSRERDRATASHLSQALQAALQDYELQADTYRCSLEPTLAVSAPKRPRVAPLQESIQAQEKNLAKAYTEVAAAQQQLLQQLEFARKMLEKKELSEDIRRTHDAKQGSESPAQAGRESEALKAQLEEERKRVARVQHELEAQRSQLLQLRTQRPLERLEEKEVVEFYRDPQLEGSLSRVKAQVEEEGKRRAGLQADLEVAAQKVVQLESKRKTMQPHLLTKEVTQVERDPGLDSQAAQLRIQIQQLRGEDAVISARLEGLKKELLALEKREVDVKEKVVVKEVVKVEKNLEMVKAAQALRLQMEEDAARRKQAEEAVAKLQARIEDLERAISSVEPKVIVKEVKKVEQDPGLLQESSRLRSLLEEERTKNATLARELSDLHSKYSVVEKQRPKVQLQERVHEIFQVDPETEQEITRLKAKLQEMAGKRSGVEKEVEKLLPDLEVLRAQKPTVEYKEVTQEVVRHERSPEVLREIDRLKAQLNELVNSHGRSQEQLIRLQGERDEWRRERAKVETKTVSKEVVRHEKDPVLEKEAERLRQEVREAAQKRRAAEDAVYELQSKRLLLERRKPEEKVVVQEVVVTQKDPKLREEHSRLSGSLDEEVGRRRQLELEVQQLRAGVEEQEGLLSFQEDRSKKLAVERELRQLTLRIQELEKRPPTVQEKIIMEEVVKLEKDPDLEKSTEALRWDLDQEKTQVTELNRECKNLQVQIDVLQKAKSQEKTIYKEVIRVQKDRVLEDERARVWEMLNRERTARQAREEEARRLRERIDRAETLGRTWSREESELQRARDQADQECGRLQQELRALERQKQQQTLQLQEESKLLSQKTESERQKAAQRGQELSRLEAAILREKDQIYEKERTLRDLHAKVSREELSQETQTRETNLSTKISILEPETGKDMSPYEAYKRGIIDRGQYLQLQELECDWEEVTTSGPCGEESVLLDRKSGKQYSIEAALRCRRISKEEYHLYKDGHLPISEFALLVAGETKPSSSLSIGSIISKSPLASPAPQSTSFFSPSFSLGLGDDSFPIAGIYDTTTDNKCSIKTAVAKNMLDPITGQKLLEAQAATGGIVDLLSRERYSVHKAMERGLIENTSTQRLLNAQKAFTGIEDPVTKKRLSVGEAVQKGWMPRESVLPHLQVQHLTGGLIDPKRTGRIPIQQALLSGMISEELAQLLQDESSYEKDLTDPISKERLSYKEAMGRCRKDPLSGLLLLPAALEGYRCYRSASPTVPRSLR

B1: recombinant Stratum Corneum Chymotryptic Enzyme (SCCE), active form obtained from recombinant ProSCCE with agarose-bound trypsin (protein)
chain: EEAQGDKIIDGAPCARGSHPWQVALLSGNQLHCGGVLVNERWVLTAAHCKMNEYTVHLGSDTLGDRRAQRIKASKSFRHPGYSTQTHVNDLMLVKLNSQARLSSMVKKVRLPSRCEPPGTTCTVSGWGTTTSPDVTFPSDLMCVDVKLISPQDCTKVYKDLLENSMLCAGIPDSKKNACNGDSGGPLVCRGTLQGLVSWGTFPCGQPNDPGVYTQVCKFTKWINDTMKKHR
On to B1, for which the “proteolysis (immunoblot of human epidermis extract incubated with active SCCE)” value with Plakoglobin, P14923 was “Plakoglobin is found to be proteolysed by recombinant SCCE”; with Desmocollin 1, Q08554, “Desmocollin is found to be proteolysed by SCCE”; in the data set with Envoplakin, Q92817 it was “Envoplakin is found to be proteolysed by SCCE”; in the data set with Corneodesmosin, Q15517, “Corneodesmosin is found to be proteolysed by recombinant SCCE”; with Desmoplakin, P15924 it was “Desmoplakin is found to be proteolysed by SCCE”; with Desmoglein, Q02413 it was “Desmoglein is found to be proteolysed by SCCE”.
